# Assay results reported in publication PMC12631696, “Trp101-Mediated Cold Adaptation in Sphingomonas sp. Thioredoxin: Increased α4-Helix Rigidity with Preserved Overall Flexibility” (ACS Omega, 2025).
# System: O=C(O)c1cc(SSc2ccc([N+](=O)[O-])c(C(=O)O)c2)ccc1[N+](=O)[O-]
# Test: purified protein
# Conditions: Trx pre-reduced with 5 mM DTT, 0.4 μM, 50 mM MOPS pH 7.0, 1 mM EDTA, DTNB 10–150 μM, apparent optimal temperature (40 °C)
Substance,Km [µM],kcat [s⁻¹]
SpTrx (Sphingomonas sp. PAMC 26621; E43A/E47A),44.0 ± 0.1,13.1 ± 0.2
SpTrx (Sphingomonas sp. PAMC 26621; E47A),39.0 ± 0.1,23 ± 0.1
SpTrx (Sphingomonas sp. PAMC 26621; W101A),59.9 ± 0.2,0.6 ± 0.1
SpTrx (Sphingomonas sp. PAMC 26621; W101F),50.7 ± 0.6,14.6 ± 0.1

# Same assay, conditions: Trx pre-reduced with 5 mM DTT, 0.4 μM, 50 mM MOPS pH 7.0, 1 mM EDTA, DTNB 10–150 μM, apparent optimal temperature (60 °C)
Substance,Km [µM],kcat [s⁻¹]
SpTrx (Sphingomonas sp. PAMC 26621),33.0 ± 0.1,26.1 ± 0.1
SpTrx (Sphingomonas sp. PAMC 26621; E43A),38.3 ± 0.1,23.4 ± 0.1
